The results in this text go back to patent publication US20230272029A1, “CO-AGONISTS AT GLP-1 AND GIP RECEPTORS SUITABLE FOR ORAL DELIVERY” (Novo Nordisk A/S, priority 2020, published 2023).

Starred links: 1 amine or outer side, 2 acyl side, 3 side chain; linkers in the order of their positions; H or OH if unused. Non-standard residues stand in square brackets, D forms with d. Groups on a side chain read outwards from the residue. No end group written: not given here. *: point of attachment. C18 diacid = O=C(O)CCCCCCCCCCCCCCCCC(=O)*; γGlu = O=C(O)[C@H](CCC(=O)[*:2])N[*:1]; εLys = N[C@@H](CCCCN[*:1])C(=O)[*:2]; Aib = CC(C)(N)C(=O)O

B1: Compound No. 34 (peptide)
peptide: Y[Aib]EGTFTSDYSIILEK([εLys-εLys-γGlu-C18 diacid])QAAREFINWLLAGGPSSGAPPPS-OH
modifications: N-terminus assumed
SMILES: CC[C@H](C)[C@H](NC(=O)[C@H](Cc1ccccc1)NC(=O)[C@H](CCC(=O)O)NC(=O)[C@H](CCCNC(=N)N)NC(=O)[C@H](C)NC(=O)[C@H](C)NC(=O)[C@H](CCC(N)=O)NC(=O)[C@H](CCCCNC(=O)[C@@H](N)CCCCNC(=O)[C@@H](N)CCCCNC(=O)CC[C@H](NC(=O)CCCCCCCCCCCCCCCCC(=O)O)C(=O)O)NC(=O)[C@H](CCC(=O)O)NC(=O)[C@H](CC(C)C)NC(=O)[C@@H](NC(=O)[C@@H](NC(=O)[C@H](CO)NC(=O)[C@H](Cc1ccc(O)cc1)NC(=O)[C@H](CC(=O)O)NC(=O)[C@H](CO)NC(=O)[C@@H](NC(=O)[C@H](Cc1ccccc1)NC(=O)[C@@H](NC(=O)CNC(=O)[C@H](CCC(=O)O)NC(=O)C(C)(C)NC(=O)[C@@H](N)Cc1ccc(O)cc1)[C@@H](C)O)[C@@H](C)O)[C@@H](C)CC)[C@@H](C)CC)C(=O)N[C@@H](CC(N)=O)C(=O)N[C@@H](Cc1c[nH]c2ccccc12)C(=O)N[C@@H](CC(C)C)C(=O)N[C@@H](CC(C)C)C(=O)N[C@@H](C)C(=O)NCC(=O)NCC(=O)N1CCC[C@H]1C(=O)N[C@@H](CO)C(=O)N[C@@H](CO)C(=O)NCC(=O)N[C@@H](C)C(=O)N1CCC[C@H]1C(=O)N1CCC[C@H]1C(=O)N1CCC[C@H]1C(=O)N[C@@H](CO)C(=O)O
B2: Compound No. 44 (peptide)
peptide: Y[Aib]EGTFTSDYSILLEEQAAREFINWLLAGGPSK([εLys-εLys-γGlu-C18 diacid])GAPPPS-OH
modifications: N-terminus assumed
SMILES: CC[C@H](C)[C@H](NC(=O)[C@H](Cc1ccccc1)NC(=O)[C@H](CCC(=O)O)NC(=O)[C@H](CCCNC(=N)N)NC(=O)[C@H](C)NC(=O)[C@H](C)NC(=O)[C@H](CCC(N)=O)NC(=O)[C@H](CCC(=O)O)NC(=O)[C@H](CCC(=O)O)NC(=O)[C@H](CC(C)C)NC(=O)[C@H](CC(C)C)NC(=O)[C@@H](NC(=O)[C@H](CO)NC(=O)[C@H](Cc1ccc(O)cc1)NC(=O)[C@H](CC(=O)O)NC(=O)[C@H](CO)NC(=O)[C@@H](NC(=O)[C@H](Cc1ccccc1)NC(=O)[C@@H](NC(=O)CNC(=O)[C@H](CCC(=O)O)NC(=O)C(C)(C)NC(=O)[C@@H](N)Cc1ccc(O)cc1)[C@@H](C)O)[C@@H](C)O)[C@@H](C)CC)C(=O)N[C@@H](CC(N)=O)C(=O)N[C@@H](Cc1c[nH]c2ccccc12)C(=O)N[C@@H](CC(C)C)C(=O)N[C@@H](CC(C)C)C(=O)N[C@@H](C)C(=O)NCC(=O)NCC(=O)N1CCC[C@H]1C(=O)N[C@@H](CO)C(=O)N[C@@H](CCCCNC(=O)[C@@H](N)CCCCNC(=O)[C@@H](N)CCCCNC(=O)CC[C@H](NC(=O)CCCCCCCCCCCCCCCCC(=O)O)C(=O)O)C(=O)NCC(=O)N[C@@H](C)C(=O)N1CCC[C@H]1C(=O)N1CCC[C@H]1C(=O)N1CCC[C@H]1C(=O)N[C@@H](CO)C(=O)O
B3: Compound No. 43 (peptide)
peptide: Y[Aib]EGTFTSDYSILLEEQAAREFIEWLLAGGPSK([εLys-εLys-γGlu-C18 diacid])GAPPPS-OH
modifications: N-terminus assumed
SMILES: CC[C@H](C)[C@H](NC(=O)[C@H](Cc1ccccc1)NC(=O)[C@H](CCC(=O)O)NC(=O)[C@H](CCCNC(=N)N)NC(=O)[C@H](C)NC(=O)[C@H](C)NC(=O)[C@H](CCC(N)=O)NC(=O)[C@H](CCC(=O)O)NC(=O)[C@H](CCC(=O)O)NC(=O)[C@H](CC(C)C)NC(=O)[C@H](CC(C)C)NC(=O)[C@@H](NC(=O)[C@H](CO)NC(=O)[C@H](Cc1ccc(O)cc1)NC(=O)[C@H](CC(=O)O)NC(=O)[C@H](CO)NC(=O)[C@@H](NC(=O)[C@H](Cc1ccccc1)NC(=O)[C@@H](NC(=O)CNC(=O)[C@H](CCC(=O)O)NC(=O)C(C)(C)NC(=O)[C@@H](N)Cc1ccc(O)cc1)[C@@H](C)O)[C@@H](C)O)[C@@H](C)CC)C(=O)N[C@@H](CCC(=O)O)C(=O)N[C@@H](Cc1c[nH]c2ccccc12)C(=O)N[C@@H](CC(C)C)C(=O)N[C@@H](CC(C)C)C(=O)N[C@@H](C)C(=O)NCC(=O)NCC(=O)N1CCC[C@H]1C(=O)N[C@@H](CO)C(=O)N[C@@H](CCCCNC(=O)[C@@H](N)CCCCNC(=O)[C@@H](N)CCCCNC(=O)CC[C@H](NC(=O)CCCCCCCCCCCCCCCCC(=O)O)C(=O)O)C(=O)NCC(=O)N[C@@H](C)C(=O)N1CCC[C@H]1C(=O)N1CCC[C@H]1C(=O)N1CCC[C@H]1C(=O)N[C@@H](CO)C(=O)O
B4: Compound No. 33 (peptide)
peptide: Y[Aib]EGTVTSDYSILLEK([εLys-εLys-γGlu-C18 diacid])QAAREFINWLLAGGPSSGAPPPS-OH
modifications: N-terminus assumed
SMILES: CC[C@H](C)[C@H](NC(=O)[C@H](Cc1ccccc1)NC(=O)[C@H](CCC(=O)O)NC(=O)[C@H](CCCNC(=N)N)NC(=O)[C@H](C)NC(=O)[C@H](C)NC(=O)[C@H](CCC(N)=O)NC(=O)[C@H](CCCCNC(=O)[C@@H](N)CCCCNC(=O)[C@@H](N)CCCCNC(=O)CC[C@H](NC(=O)CCCCCCCCCCCCCCCCC(=O)O)C(=O)O)NC(=O)[C@H](CCC(=O)O)NC(=O)[C@H](CC(C)C)NC(=O)[C@H](CC(C)C)NC(=O)[C@@H](NC(=O)[C@H](CO)NC(=O)[C@H](Cc1ccc(O)cc1)NC(=O)[C@H](CC(=O)O)NC(=O)[C@H](CO)NC(=O)[C@@H](NC(=O)[C@@H](NC(=O)[C@@H](NC(=O)CNC(=O)[C@H](CCC(=O)O)NC(=O)C(C)(C)NC(=O)[C@@H](N)Cc1ccc(O)cc1)[C@@H](C)O)C(C)C)[C@@H](C)O)[C@@H](C)CC)C(=O)N[C@@H](CC(N)=O)C(=O)N[C@@H](Cc1c[nH]c2ccccc12)C(=O)N[C@@H](CC(C)C)C(=O)N[C@@H](CC(C)C)C(=O)N[C@@H](C)C(=O)NCC(=O)NCC(=O)N1CCC[C@H]1C(=O)N[C@@H](CO)C(=O)N[C@@H](CO)C(=O)NCC(=O)N[C@@H](C)C(=O)N1CCC[C@H]1C(=O)N1CCC[C@H]1C(=O)N1CCC[C@H]1C(=O)N[C@@H](CO)C(=O)O

In one assay the target is T1, human GIP receptor (human, UniProt P48546 22-466).
T1 sequence (looked up): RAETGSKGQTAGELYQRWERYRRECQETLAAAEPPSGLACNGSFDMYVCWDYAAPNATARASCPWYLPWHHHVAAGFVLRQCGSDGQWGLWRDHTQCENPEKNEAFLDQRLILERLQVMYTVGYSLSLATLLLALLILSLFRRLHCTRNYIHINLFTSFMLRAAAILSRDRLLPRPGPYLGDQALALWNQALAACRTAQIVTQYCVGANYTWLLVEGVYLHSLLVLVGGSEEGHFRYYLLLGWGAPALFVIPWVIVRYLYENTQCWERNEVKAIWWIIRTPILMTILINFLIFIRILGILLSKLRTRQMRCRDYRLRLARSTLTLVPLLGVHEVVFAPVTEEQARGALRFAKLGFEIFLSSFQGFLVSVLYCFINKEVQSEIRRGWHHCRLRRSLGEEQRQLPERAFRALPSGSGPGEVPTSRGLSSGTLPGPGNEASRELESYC
Briefly: cell-based or functional assay.
Turning to B1, the “hGIPR, CRE Luc 0% HSA EC50 (pM)” value worked out at 8.3 pM and the “hGIPR, CRE Luc 1% HSA EC50 (pM)” value stood at 213 pM.
For B2, in that order: 5.7 pM and 365 pM.
For B3, in that order: 5.6 pM and 444 pM.
For B4, in that order: 2.9 pM and 103 pM.

In the next assay the target is human GLP-1 receptor (human, UniProt P43220 24-463). Briefly: cell-based or functional assay.
For B1, the “hGLP-1R, CRE Luc 0% HSA EC50 (pM)” value worked out at 6 pM and the “hGLP-1R, CRE Luc 1% HSA EC50 (pM)” value was found to be 186 pM.
For B2, in that order: 4.2 pM and 241 pM.
With B3, the “hGLP-1R, CRE Luc 0% HSA EC50 (pM)” value is 4 pM and the “hGLP-1R, CRE Luc 1% HSA EC50 (pM)” value amounted to 360 pM.
For B4, in that order: 14.8 pM and 361 pM.
